# ± gives the uncertainty stated by the source.
# Test: self-splicing fitness, log relative to wild type (ln ratio); higher = more splicing; Tetrahymena group I intron in knt gene, E. coli kanamycin selection, DiMSum; sequences stand for … in CUCUCU…GGAGGGAAAAGUUAUCAGGCAUGCACCUGGUAGCUAGUCUUUAAACCAAUAGAUUGCAUCGGUUUAAAAGGCAAGACCGUCAAAUUGCGGGAAAGGGGUCAACAGCCGUUCAGUACCAAGUCUCAGGGGAAACUUUGAGAUGGCCUUGCAAAGGGUAUGGUAAUAAGCUGACGGACAUGGUCCUAACCACGCAGCCAAGUCCUAAGUCAACAGAUCUUCUGUUGAUAUGGAUGCAGUUCACAGACUAAAUGUCGGUCGGGGAAGAUGUAUUCUUCUCAUAAGAUAUAGUCGGACCUCUCCUUAAUGGGAGCUAGCGGAUGAAGUGAUGCAACACUGGAGCCGCUGGGAACUAAUUUGUAUGCGAAAGUAUAUUGAUUAGUUUUGGAGUACUCGUGGUCG
# Outline: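 A randomised library covering all eight P1ex-region intron nucleotides was built with the intron in the knt kanamycin-resistance gene on pET-22b(+) and held in E. coli BL21(DE3). Cells were grown overnight at 37°C or 30°C on LB agar, with or without 25 μg/mL kanamycin, plus 100 μg/mL carbenicillin, 50 μM IPTG and 0.2% rhamnose, and pooled colonies were amplicon-sequenced on an Illumina HiSeq 2500. DiMSum fitness is the error-weighted combination of wild-type-normalised replicate fold changes, kanamycin versus none.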
Sequence,self-splicing fitness (ln) (30 °C),self-splicing fitness (ln) (37 °C)
UGAUAGCAAUAUUACGACCG,0.139 ± 0.13,0.451 ± 0.17
CUGAAGCAAUAUUACGCUUA,-3.82 ± 0.3,-2.13 ± 0.23
ACAAAGCAAUAUUACGAGCU,-0.866 ± 0.066,-0.624 ± 0.097
AGGAAGCAAUAUUACGUGCU,-2.18 ± 0.17,-0.868 ± 0.16
CGGUAGCAAUAUUACGACCG,-2.88 ± 0.36,-2.07 ± 0.42
UUGUAGCAAUAUUACGGUAG,-0.909 ± 0.18,-0.181 ± 0.2
GGUUAGCAAUAUUACGCAUU,-0.941 ± 0.075,-0.185 ± 0.086
CUAGAGCAAUAUUACGAAAG,-0.33 ± 0.092,0.557 ± 0.12
GUACAGCAAUAUUACGGAGA,-3.87 ± 0.35,-2.81 ± 0.21
GUCAAGCAAUAUUACGAAGC,-3.84 ± 0.27,-2.54 ± 0.2
CCUUAGCAAUAUUACGAGCU,-4 ± 0.33,-2.74 ± 0.29
CCCAAGCAAUAUUACGACGU,-2.11 ± 0.13,-2.43 ± 0.2
UAUCAGCAAUAUUACGAGUU,-2.58 ± 0.1,-0.829 ± 0.089
GAAGAGCAAUAUUACGAUCA,-2.36 ± 0.21,-1.01 ± 0.19
GCUAAGCAAUAUUACGGCAC,-1.31 ± 0.19,-0.55 ± 0.2
GGCAAGCAAUAUUACGGCUC,-2.55 ± 0.25,-0.854 ± 0.21
CUAAAGCAAUAUUACGUGAG,-0.0713 ± 0.047,-0.2 ± 0.066
UACAAGCAAUAUUACGGCUU,-3.99 ± 0.16,-2.37 ± 0.15
GGUAAGCAAUAUUACGUUGG,-2.59 ± 0.38,-1.99 ± 0.39
UACCAGCAAUAUUACGGGCG,-0.359 ± 0.072,-0.277 ± 0.079
UAAGAGCAAUAUUACGGUAC,–,-2.25 ± 0.41
GCACAGCAAUAUUACGGCAA,-1.31 ± 0.13,-0.887 ± 0.14
UUUGAGCAAUAUUACGUCAG,-3.43 ± 0.2,-1.46 ± 0.27
AAGGAGCAAUAUUACGCCGC,–,-2.04 ± 0.5
GCUCAGCAAUAUUACGCACU,0.181 ± 0.11,0.213 ± 0.14
AUGCAGCAAUAUUACGCGGA,-2.88 ± 0.11,-0.559 ± 0.069

Sequence,self-splicing fitness (ln) (30 °C),self-splicing fitness (ln) (37 °C)
GCAAAGCAAUAUUACGGUGC,-2.45 ± 0.12,-3.66 ± 0.27
AUAGAGCAAUAUUACGUUGG,-4.04 ± 0.25,-2.51 ± 0.19
CCAAAGCAAUAUUACGGAUC,-3.45 ± 0.23,-2.47 ± 0.39
UAAGAGCAAUAUUACGAGUC,-3.17 ± 0.49,–
CCUAAGCAAUAUUACGCAGG,-4.8 ± 0.29,-2.37 ± 0.25
CACUAGCAAUAUUACGCCCA,-1.1 ± 0.16,-1.35 ± 0.27
GCGAAGCAAUAUUACGUCUU,-2.56 ± 0.15,-2.06 ± 0.13
CUGAAGCAAUAUUACGCUUC,-3.51 ± 0.19,-2.56 ± 0.19
CAUGAGCAAUAUUACGUCUA,-2.57 ± 0.17,-2.28 ± 0.21
AAUUAGCAAUAUUACGUCUA,-0.734 ± 0.087,-0.256 ± 0.093
UAGUAGCAAUAUUACGCUGU,-3.6 ± 0.36,-1.91 ± 0.32
CUAGAGCAAUAUUACGCUCG,-3.8 ± 0.46,-1.69 ± 0.36
UGGAAGCAAUAUUACGCUUU,-3.64 ± 0.23,-2.64 ± 0.28
GAGCAGCAAUAUUACGCUCG,-2.11 ± 0.33,-0.285 ± 0.22
GCACAGCAAUAUUACGGCCA,-1.84 ± 0.21,-0.441 ± 0.19
CUUGAGCAAUAUUACGAAUG,-1.23 ± 0.12,-0.596 ± 0.19
CUUAAGCAAUAUUACGGUGA,-3.72 ± 0.24,-2.17 ± 0.19
AACUAGCAAUAUUACGUGGA,-2.28 ± 0.11,-1.61 ± 0.1
AGUAAGCAAUAUUACGGUGU,-2.92 ± 0.14,-2.44 ± 0.16
UUUGAGCAAUAUUACGGCGA,-1.09 ± 0.18,-0.162 ± 0.19
AGGUAGCAAUAUUACGUCUA,-0.666 ± 0.015,-0.259 ± 0.033
GACGAGCAAUAUUACGCGAA,-2.91 ± 0.31,-1.16 ± 0.21
AAAAAGCAAUAUUACGCAAC,-2.16 ± 0.15,-1.99 ± 0.24
AUCCAGCAAUAUUACGUUAC,-3.89 ± 0.24,-2.59 ± 0.22
CUACAGCAAUAUUACGCAGA,-3.97 ± 0.28,-3.07 ± 0.22
UUUCAGCAAUAUUACGGGUU,-3.19 ± 0.24,-2.13 ± 0.18

Sequence,self-splicing fitness (ln) (30 °C),self-splicing fitness (ln) (37 °C)
CCUGAGCAAUAUUACGGCUG,-4.49 ± 0.31,-1.76 ± 0.2
ACCAAGCAAUAUUACGCAAC,-3.4 ± 0.38,-1.01 ± 0.17
GCUUAGCAAUAUUACGGCUC,-0.359 ± 0.098,0.0516 ± 0.12
ACUUAGCAAUAUUACGUGCG,-1.29 ± 0.1,0.152 ± 0.15
UUUUAGCAAUAUUACGACGU,-2.06 ± 0.25,-1.24 ± 0.22
UUAAAGCAAUAUUACGUCUU,-1.23 ± 0.082,-0.988 ± 0.12
GCGAAGCAAUAUUACGUAGU,-3.8 ± 0.34,-2.13 ± 0.18
AGUGAGCAAUAUUACGGCCG,-3.46 ± 0.29,-1.59 ± 0.24
AAGUAGCAAUAUUACGGUAA,-1.12 ± 0.17,-0.903 ± 0.13
AUACAGCAAUAUUACGUUCU,0.212 ± 0.1,-0.221 ± 0.12
UGGUAGCAAUAUUACGCUCC,-2.54 ± 0.24,-2.44 ± 0.21
UAUCAGCAAUAUUACGUUUA,-0.174 ± 0.055,-0.0219 ± 0.069
CUCUAGCAAUAUUACGCAGU,-4.21 ± 0.24,-4.07 ± 0.23
UGGUAGCAAUAUUACGAGAU,–,-1.76 ± 0.43
GCGAAGCAAUAUUACGAGAG,-3.95 ± 0.34,-1.91 ± 0.2
UUUAAGCAAUAUUACGUGUG,-1.24 ± 0.096,-0.602 ± 0.093
CCAGAGCAAUAUUACGGAGU,-3.32 ± 0.21,-3.21 ± 0.28
CAUUAGCAAUAUUACGCUCU,-2.64 ± 0.2,-1.43 ± 0.22
UCUAAGCAAUAUUACGGGUC,-2.67 ± 0.26,-1.16 ± 0.37
ACAUAGCAAUAUUACGCAGC,–,-3.15 ± 0.31
CGCCAGCAAUAUUACGUCGA,-2.94 ± 0.12,-1.24 ± 0.081
UAGCAGCAAUAUUACGCCGA,-0.884 ± 0.14,0.482 ± 0.14
AGCAAGCAAUAUUACGUUAA,-3.3 ± 0.17,-1.68 ± 0.1
UCGAAGCAAUAUUACGCCUG,-0.508 ± 0.14,-0.022 ± 0.21
GGCUAGCAAUAUUACGGUUC,-1.31 ± 0.056,-0.331 ± 0.072

# From the supplement of paper PMC7877785
